# Reference: the Human Domainome abundance scans (Beltran et al. 2025)
# ± gives the uncertainty stated by the source.
# B1: Gamma-crystallin D, residues 90 to 170; numbered along this chain, P07320 (parent)
# chain: IRLYEREDYRGQMIEFTEDCSCLQDRFRFNEIHSLNVLEGSWVLYELSNYRGRQYLLMPGDYRRYQDWGATNARVGSLRRV
# B2: Double-stranded RNA-specific adenosine deaminase, residues 296 to 358; numbered along this chain, P55265 (parent)
# chain: MAEIKEKICDYLFNVSDSSALNLAKNIGLTKARDINAVLIDMERQGDVYRQGTTPPIWHLTDK
# Variants of: B1
# Assay: abundance fitness (aPCA) (normalised: wild type 0, dead -1); higher = more abundant; growth selection in yeast, the domain comes from the species named
# Settings: Homo sapiens
row,Variant,abundance fitness
1,S77A,-0.168 ± 0.087
2,S77C,-0.28 ± 0.17
3,S77D,-1.03 ± 0.31
4,S77E,-0.868 ± 0.31
5,S77F,-0.879 ± 0.45
6,S77G,-0.367 ± 0.072
7,S77K,-0.654 ± 0.35
8,S77L,-0.819 ± 0.14
9,S77P,-1.04 ± 0.29
10,S77Q,-1.05 ± 0.42
11,S77R,-1.01 ± 0.17
12,S77T,-0.921 ± 0.3
13,S77V,-1.13 ± 0.26
14,S77W,-1.01 ± 0.29
15,L78C,0.157 ± 0.13
16,L78E,-0.873 ± 0.34
17,L78G,-0.565 ± 0.09
18,L78H,-0.426 ± 0.18
19,L78I,0.061 ± 0.17
20,L78K,-1.12 ± 0.45
21,L78M,0.126 ± 0.11
22,L78P,-0.708 ± 0.2
23,L78Q,-0.908 ± 0.5

row,Variant,abundance fitness
1,L78R,-0.893 ± 0.11
2,L78S,-0.38 ± 0.091
3,L78W,-0.011 ± 0.07
4,R79A,0.096 ± 0.097
5,R79C,-0.355 ± 0.39
6,R79D,-0.552 ± 0.32
7,R79E,0.113 ± 0.16
8,R79F,-0.214 ± 0.12
9,R79G,-0.032 ± 0.1
10,R79I,-0.175 ± 0.19
11,R79K,-0.048 ± 0.14
12,R79M,0.086 ± 0.22
13,R79N,-0.316 ± 0.3
14,R79P,-0.93 ± 0.17
15,R79Q,0.049 ± 0.13
16,R79S,0.068 ± 0.093
17,R79T,-0.117 ± 0.11
18,R79W,-0.36 ± 0.11
19,R79Y,-0.153 ± 0.19
20,V81A,-0.093 ± 0.43
21,V81I,-0.054 ± 0.15
22,V81L,0.081 ± 0.37

# Variants of: B2
# Assay: as above
# Settings: Homo sapiens
row,Variant,abundance fitness
1,AAEIKEKICDYLFNVSDSSALNLAKNIGLTKARDINAVLIDMERQGDVYRQGTTPPIWHLTDK [M1A],-0.418 ± 0.13
2,CAEIKEKICDYLFNVSDSSALNLAKNIGLTKARDINAVLIDMERQGDVYRQGTTPPIWHLTDK [M1C],-0.545 ± 0.3
3,DAEIKEKICDYLFNVSDSSALNLAKNIGLTKARDINAVLIDMERQGDVYRQGTTPPIWHLTDK [M1D],-0.359 ± 0.11
4,EAEIKEKICDYLFNVSDSSALNLAKNIGLTKARDINAVLIDMERQGDVYRQGTTPPIWHLTDK [M1E],0.235 ± 0.13
5,FAEIKEKICDYLFNVSDSSALNLAKNIGLTKARDINAVLIDMERQGDVYRQGTTPPIWHLTDK [M1F],0.108 ± 0.2
6,GAEIKEKICDYLFNVSDSSALNLAKNIGLTKARDINAVLIDMERQGDVYRQGTTPPIWHLTDK [M1G],-0.263 ± 0.084
7,KAEIKEKICDYLFNVSDSSALNLAKNIGLTKARDINAVLIDMERQGDVYRQGTTPPIWHLTDK [M1K],0.181 ± 0.073
8,LAEIKEKICDYLFNVSDSSALNLAKNIGLTKARDINAVLIDMERQGDVYRQGTTPPIWHLTDK [M1L],-0.29 ± 0.096
9,QAEIKEKICDYLFNVSDSSALNLAKNIGLTKARDINAVLIDMERQGDVYRQGTTPPIWHLTDK [M1Q],0.435 ± 0.32
10,RAEIKEKICDYLFNVSDSSALNLAKNIGLTKARDINAVLIDMERQGDVYRQGTTPPIWHLTDK [M1R],0.151 ± 0.059
11,SAEIKEKICDYLFNVSDSSALNLAKNIGLTKARDINAVLIDMERQGDVYRQGTTPPIWHLTDK [M1S],-0.034 ± 0.066
12,WAEIKEKICDYLFNVSDSSALNLAKNIGLTKARDINAVLIDMERQGDVYRQGTTPPIWHLTDK [M1W],0.017 ± 0.06
13,YAEIKEKICDYLFNVSDSSALNLAKNIGLTKARDINAVLIDMERQGDVYRQGTTPPIWHLTDK [M1Y],-0.327 ± 0.26
14,MCEIKEKICDYLFNVSDSSALNLAKNIGLTKARDINAVLIDMERQGDVYRQGTTPPIWHLTDK [A2C],-0.393 ± 0.086
